The target in this assay is recombinant human IL-1RI Fc chimera (human) (UniProt P14778). The assay is described as follows: ELISA.

This passage reports fold reduction of affinity against wild-type IL-1β results from paper PMC4362373.

UniProt P14778, sequence (P14778 18-336, change not shown): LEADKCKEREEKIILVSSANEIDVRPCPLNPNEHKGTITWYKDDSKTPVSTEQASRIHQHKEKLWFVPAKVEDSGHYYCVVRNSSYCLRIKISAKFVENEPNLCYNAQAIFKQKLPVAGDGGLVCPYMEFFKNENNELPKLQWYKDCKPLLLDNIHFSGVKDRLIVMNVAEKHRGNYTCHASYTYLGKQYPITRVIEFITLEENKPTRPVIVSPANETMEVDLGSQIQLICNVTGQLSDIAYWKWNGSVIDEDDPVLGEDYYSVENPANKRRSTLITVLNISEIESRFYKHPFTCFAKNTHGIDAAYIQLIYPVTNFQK

As to hIL-1b(D145K) (ligand), the fold reduction of affinity against wild-type IL-1β came to 3500 fold.
